PMC5581300
Read-outs that look alike come from different tables or passages of the source.

Assays:
[1] = molecular target: Plasma Membrane Calcium ATPase 4 (mouse (endogenous in sperm)) (UniProt Q6Q477); test: FRET or BRET
[2] = molecular target: Plasma Membrane Calcium ATPase 4 (mouse (endogenous in sperm)) (UniProt Q6Q477); test: FRET or BRET; remark: listed apart in the source

UniProt Q6Q477, sequence (Q6Q477 whole entry): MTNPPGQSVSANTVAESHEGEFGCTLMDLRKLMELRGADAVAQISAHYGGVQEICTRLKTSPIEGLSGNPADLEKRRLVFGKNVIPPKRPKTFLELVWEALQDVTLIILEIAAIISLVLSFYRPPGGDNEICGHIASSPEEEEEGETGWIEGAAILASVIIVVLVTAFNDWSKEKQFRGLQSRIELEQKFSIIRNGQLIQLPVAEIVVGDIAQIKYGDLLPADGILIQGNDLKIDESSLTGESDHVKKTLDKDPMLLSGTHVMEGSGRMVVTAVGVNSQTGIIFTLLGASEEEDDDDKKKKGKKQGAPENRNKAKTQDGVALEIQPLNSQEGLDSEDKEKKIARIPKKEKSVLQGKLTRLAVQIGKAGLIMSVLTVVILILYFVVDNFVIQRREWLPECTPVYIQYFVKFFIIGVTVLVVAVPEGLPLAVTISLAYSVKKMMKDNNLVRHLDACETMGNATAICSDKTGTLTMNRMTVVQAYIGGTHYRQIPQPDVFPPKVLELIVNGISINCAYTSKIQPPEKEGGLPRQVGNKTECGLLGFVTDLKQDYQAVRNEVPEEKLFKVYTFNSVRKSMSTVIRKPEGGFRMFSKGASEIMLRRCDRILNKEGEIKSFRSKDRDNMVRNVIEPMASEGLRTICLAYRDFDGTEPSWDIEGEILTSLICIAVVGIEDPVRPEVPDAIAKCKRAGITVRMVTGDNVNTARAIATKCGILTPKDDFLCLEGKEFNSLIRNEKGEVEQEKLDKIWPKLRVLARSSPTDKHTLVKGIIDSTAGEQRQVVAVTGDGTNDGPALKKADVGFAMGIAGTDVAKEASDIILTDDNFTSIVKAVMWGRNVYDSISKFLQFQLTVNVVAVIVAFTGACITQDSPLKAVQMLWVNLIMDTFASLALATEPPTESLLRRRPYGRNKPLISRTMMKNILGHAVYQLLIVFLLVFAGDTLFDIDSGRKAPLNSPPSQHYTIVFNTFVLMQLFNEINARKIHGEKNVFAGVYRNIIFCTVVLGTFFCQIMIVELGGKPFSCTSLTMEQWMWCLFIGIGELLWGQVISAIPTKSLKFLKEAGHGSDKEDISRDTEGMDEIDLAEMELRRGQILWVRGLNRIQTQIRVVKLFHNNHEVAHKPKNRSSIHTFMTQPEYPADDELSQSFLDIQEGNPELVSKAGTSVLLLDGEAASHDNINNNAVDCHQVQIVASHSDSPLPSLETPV

## neuronal nitric oxide synthase (from UniProt Q9Z0J4 1-1429) (enzyme)
[1]
  FRET efficiency: 6%
[2]
  FRET efficiency: 24%
